These results are taken from patent US20180003720A1.

The assay addresses γ-H2AX peptide standard (synthetic peptide …, serine at position 27 phosphorylated). Nature of the assay: sandwich chemiluminescent ELISA: plate-coated JBW301 captures the γ-H2AX peptide standard; detected with rabbit polyclonal anti-H2AX (Abcam) and goat anti-rabbit HRP. (An ELISA detects its analyte on a solid surface through an enzyme-linked reagent.)

γ-H2AX peptide standard (synthetic peptide …, serine at position 27 phosphorylated), sequence (peptide, as listed by the source): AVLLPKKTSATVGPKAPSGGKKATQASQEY

Consider “Anti-γ-H2AX (Ser139) mouse monoclonal antibody, clone JBW301 (Millipore)”, for which the Average RLU (n = 3) at 5 pM γH2AX standard came to 993000 RLU, the Average RLU (n = 3) at 10 pM γH2AX standard was 2.02e+06 RLU, the Average RLU (n = 3) at 20 pM γH2AX standard was 4.6e+06 RLU and the Average RLU (n = 3) at 40 pM γH2AX standard amounted to 1e+07 RLU. The Average RLU (n = 3) at 80 pM γH2AX standard came out at 2.08e+07 RLU, the Average RLU (n = 3) at 160 pM γH2AX standard is 3.74e+07 RLU, the Average RLU (n = 3) at 320 pM γH2AX standard was 5.88e+07 RLU and the Average RLU (n = 3) at 640 pM γH2AX standard turned out to be 7.92e+07 RLU.
